Experimental data published in patent publication US20240287489A1, “CHITINOLYTIC ENZYME-BASED PLANT PROTECTION AGENTS” (GLOBACHEM NV, priority 2021, published 2024).

What was measured:
[1] = Chitinase mixture design, conversion rate of chitin powder (reducing end assay); assay type: biochemical; settings: 2 μM Factor A
Method: All five chitinases implemented in the DoE originated from a novel marine Photobacterium strain expressing these enzymes to carry out a conversion of crystalline chitin to monomeric and dimeric polysaccharides. All chitinases were produced recombinantly using E. coli BL21 (DE3) and characterized regarding optimum reaction conditions and product properties in Example 2. As so far only singular enzyme reactions were carried out, the DoE approach was used to 1) determine ideal enzyme combinations to maximize product rates 2) identify possible enzyme combinations to alter product distribution in terms of DP. […] The amount of released reducing sugars from the enzymatic degradation was quantified by the reducing end assay and used as a primary response.
The optimization function in Design Expert was used to model enzyme mixtures to maximize the overall conversion rate of chitin to oligomeric chitin mixtures. Three mixture solutions for maximized chitin (S1-83 Max) oligomer rates were tested and quantitative data was compared to the values predicted by the model. […]
Enzymatic activity of recombinant chitinases was determined by carrying out a reducing end assay [J., H., Svein, E., and H., V. G., Carbohydr Polym, 2004. […] Samples were cooled down to room temperature and absorption was determined at 620 nm. […]

[2] = Substrate conversion yield from residue substrate after the reaction; assay type: biochemical; settings: residue substrate after the reaction relative to the starting material
Method: The overall substrate conversion yield was determined for all maximized solutions after determining the residue substrate after the reaction, relative to the starting material.

Fusarium culmorum = assay type: in vivo; settings: wheat, foliar application 3 dps, F. culmorum added 4 dps
D. melanogaster eggs = experiment: Larvae survival after treatment of D. melanogaster eggs; assay type: in vivo; settings: chitinase concentrations from 10% to 0.1%
Method: The effects of chitinases on insects was tested on D. melanogaster eggs. Briefly, eggs were treated with chitinase 1 or a control, and larvae survival was assessed 3 days after treatment (DAT). Results for chitinase concentrations of concentration from 10% to 0.1% were as follows: […]

[3] = test system: corn (maize), rice, barley; experiment: Protection of plants against abiotic stress (drought, flooding, salt, frost); assay type: in vivo, pear, cherry; settings: foliar and/or seed application
Excerpt: FIGS. 18A-18E. Use of chitinase 1 as plant protection agent against abiotic stresses. Plant length (PL) FIG. 18A: after foliar application on corn in presence of drought or flooding stress; FIG. 18B: after foliar, seed or foliar+seed application on corn in presence of drought stress; FIG. 18C: after foliar application on rice in presence of salt stress; FIG. 18D: after foliar application on corn in presence of salt stress; FIG. 18E: after seed application on barley in presence of drought stress.
FIGS. 19A-19B. Use of chitinase 1 as plant protection agent against abiotic stresses. Yield FIG. 19A: of pears after foliar application in presence of frost stress; FIG. 19B: of cherries after foliar application in presence of frost stress.
Chitinase 1 was tested for protective effects against abiotic stress. Abiotic stresses tested were drought, flooding, salt, or frost stress. Plants tested were: corn (maize), rice, barley, pear and […]. Test conditions were as follows:
• plants are drilled in trays • germination at 25° C./15° C. (day/night) light 16 h, dark 8 h • application 10 days later • 2 days later replanted in pots of 8×8 cm • 3 possible regimes • no water • every day water with flooding system • continuous water
• plants are drilled in trays • germination at 25° C./15° C. […]

B1: Chitinase 1: chitinolytic enzyme from P. orarium, SEQ ID NO: 1, recombinant with PelB signal peptide and 6×His tag; run 19 = 2 μM alone (protein, listed as Photobacterium orarium)
chain: MAAPGTPQIAWMETDYAIVEVDQAASAYKSLITVKPAAEVPVAWQRYSGETADLWKVKLNGNVVFEQSIAPASSGAGSTTLSVAQGGQYAMTVELCSGTGAAQACTSSAATNIVVADTDGSHLDPLPMNVDANNGNYTTPANTVVGAYFVEWGVYGRKFSVDNIPAQNLTHILYGFIPICGPNESLGEIENGNSLAALNRACQGTPDYEVVIHDPWAAVQMPQPQSGHTHSTPYKGTYGQMMALKQRYPDLKIVPSVGGWTLSDPFYSFTDKAKRDIFVASVKKFLKTWKFFDGVDIDWEFPGGKGANANLGDPVNDGPAYVALMRELRVMLDELEAETGRQYELTSAIGVGYDKIDVVNYADAVQYMDYIFAMTYDFFGGWNNVPGHQTALFCGSHMSADVCNGTGVDENGVPRQGPAYTAAHGIDRLLAQGVPANKLVLGTAMYARGWTGVTEASMTDPTNPMTGTGNGMVPGSWEPGVIDYKDVVTDYINNAAVTKGYDAQAEAPWAYNPSNGNLITYDDRRSVLAKGQYVRNLGLAGLFAWEIDADNGDILNAMQDSLAGGGGNYAPVAKAGADQVVNGAASVTLDGSASSDRDGQIVSYQWTQTSGPALTLTGSDTATATVAVPEVTADTQYAFTLTVTDNAGDTATDSVTVTAKAPGSNTAPVVAVSGPATASAGDTVVLDASQSSDADGDTLTFTWTVPAGVNATVNGATVSFVADSYTVDTPLNFTVAVSDGTDSVTESVTVTVLKDGGSTGCTNAWATGGVYNSGDIVTHSGKSWKAKWWTTGEEPGTTGEWGVWEDLGAANCQIE
modifications: PelB signal peptide; 6xHis tag; Chitinase 1
notes: run 19 = 2 μM alone
- conversion rate (highest of the design runs) [1]: 502 nmol/mL/h
- substrate conversion yield [2]: 18.3±0.5%
- fungal growth in germination test (Fusarium culmorum): strong inhibition of fungal growth
- plant health in germination test (Fusarium culmorum; compared to the control): improved plant health
- % mortality (D. melanogaster eggs; 3 days after treatment, control 25): 36%
- % survival (D. melanogaster eggs; larvae survival 3 days after treatment, control 75): 64%
- protection from abiotic stress (plant length, fruit yield) [3]: protects the plants from different abiotic stresses
